Data set [1] addresses TCF4 bHLH domain (Homo sapiens) (UniProt P15884). The data set is described as follows: FP. The settings on record: 25 C.
Data set [2] shares this target. The experiment in a line: ITC. Conditions: ITC: 20 mM Tris pH 7.5, 150 mM NaCl, 25 C.

The values that follow come from paper PMC6895265.

For orientation: Kd means the free concentration of one partner at which half of the binding sites on the other are occupied at equilibrium, for simple one-to-one binding. A low value points to a tighter complex.

Sequence of TCF4 bHLH domain (Homo sapiens) (P15884 565-624): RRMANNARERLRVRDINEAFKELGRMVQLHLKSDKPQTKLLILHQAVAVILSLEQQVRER

For the sequence “CCGGTCACGTGTCCTA (double strand) [FAM 16-mer central CpG F/C]”, in data set [1] (5fC at strand 1 C8, ITC: 20 mM Tris pH 7.5, 150 mM NaCl), the Kd amounted to 190 nM. Regarding “ACGCACGTGCGT (double strand) [12-mer CG-flanked, X=C]”, the Kd in data set [2] worked out at 370 nM.

As for “CCGGTCACGTGTCCTA (double strand) [FAM 16-mer central CpG 5caC/C]”, in data set [1] (5caC at strand 1 C8, ITC: 20 mM Tris pH 7.5, 150 mM NaCl), the dissociation constant (Kd) amounted to 140 nM. In data set [1] (5hmC at strand 1 C8, ITC: 20 mM Tris pH 7.5, 150 mM NaCl), “CCGGTCACGTGTCCTA (double strand) [FAM 16-mer central CpG H/C]” had a Kd of 160 nM.

“CCGGTCACGTGTCCTA (double strand) [FAM 16-mer central CpG M/C]” showed a Kd in data set [1] (5mC at strand 1 C8, ITC: 20 mM Tris pH 7.5, 150 mM NaCl) of 160 nM. Take “CCGGTCACGTGTCCTA (double strand) [FAM 16-mer E-box C/C]”: in data set [1] (ITC: 20 mM Tris pH 7.5, 150 mM NaCl), the Kd is 110 nM.
